Assay results: patent publication US11306156

Experiments:
[1] = biological target: tissue factor (TF) antigen (UniProt P13726); assay: SPR; against wild-type D3H44 Fab
[2] = biological target: tissue factor (TF) antigen (UniProt P13726); assay: SPR (ProteOn), Fab captured on anti-penta His, TF as analyte, 1:1 fit
[3] = biological target: tissue factor (TF) antigen (UniProt P13726); assay: SPR (ProteOn), against wild-type D3H44 Fab
[4] = biological target: tissue factor (TF) antigen (UniProt P13726); assay: SPR (ProteOn), Fab captured by anti-penta-His, TF as analyte, 1:1 fit
[5] = biological target: tissue factor (TF) antigen (UniProt P13726); assay: SPR (ProteOn XPR36): Fab captured via His tag on anti-penta-His, TF as analyte, 1:1 fit
[6] = biological target: tissue factor (TF) antigen (UniProt P13726); assay: SPR; log ratio against wild-type D3H44 Fab

Sequence of tissue factor (TF) antigen (P13726 33-251 limits assumed): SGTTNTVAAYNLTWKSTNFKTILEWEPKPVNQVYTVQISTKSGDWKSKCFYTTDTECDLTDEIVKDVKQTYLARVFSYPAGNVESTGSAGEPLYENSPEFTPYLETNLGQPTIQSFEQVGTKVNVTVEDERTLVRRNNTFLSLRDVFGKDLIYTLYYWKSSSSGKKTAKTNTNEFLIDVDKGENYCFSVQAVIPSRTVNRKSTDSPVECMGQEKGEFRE

Change in KD with respect to wild type (-(log(KD design) - log(KD wt))) [1] | Kd [2] [pM] | Kd [5] [pM] | Change in KD with respect to wild type (-(log(KD design) - log(KD wt))) [6] | Substance | other results
0.06 | 140 |  |  | D3H44 Fab heterodimer, H1 A139G_F174V_V190A / L1 S131T_L135F_S176F_T178F (H1L1 of LCCA set 9051) | 
-0.02 | 160 |  |  | D3H44 Fab heterodimer, H1 A139G_V190A / L1 L135W_S176L (H1L1 of LCCA set 9056) | 
-0.02 | 170 |  |  | D3H44 Fab heterodimer, H1 A139W_S188L / L1 F116A_L135V (H1L1 of LCCA sets 9063 and 9062) | 
-0.01 | 160 |  |  | D3H44 Fab heterodimer, H1 K145T_Q179E / L1 S131K (H1L1 of LCCA set 9082) | 
0.08 | 130 |  |  | D3H44 Fab heterodimer, H1 L124E_H172T / L1 V133G_N137K_S174R_S176R (H1L1 of LCCA set 9120) | 
-0.15 | 220 |  |  | D3H44 Fab heterodimer, H1 L124E_L143D_K145M / L1 Q124K_V133G_S176R_T178K (H1L1 of LCCA set 9178) | 
-0.08 | 190 |  |  | D3H44 Fab heterodimer, H1 L124E_L143D_K145T / L1 Q124K_V133G_S176R_T178K (H1L1 of LCCA sets 9216 and 9220) | 
-0.19 | 240 |  |  | D3H44 Fab heterodimer, H1 L124E_L143E_K145M / L1 Q124K_V133G_S176R_T178K (H1L1 of LCCA sets 9260 and 9263) | 
-0.1 | 200 |  |  | D3H44 Fab heterodimer, H1 L124R_D146N_Q179K / L1 Q124E_V133G_S176D_T178E_T180E (H1L1 of LCCA set 9351) | 
-0.07 | 180 |  |  | D3H44 Fab heterodimer, H1 L124R_S186K / L1 V133G_S176D_T178D_T180E (H1L1 of LCCA set 9473) | 
0.39 | 60 |  |  | D3H44 Fab heterodimer, H1 L143E_K145T_Q179D / L1 Q124R_Q160K_T178R (H1L1 of LCCA set 9620) | 
-0.31 | 320 |  |  | D3H44 Fab heterodimer, H1 Q179K / L1 Q124E_Q160E_T180E (H1L1 of LCCA set 9763) | 
0.05 | 140 |  |  | D3H44 Fab heterodimer, H1 Q179K / L1 Q124E_T178E (H1L1 of LCCA set 9783) | 
0.16 | 110 |  |  | D3H44 Fab heterodimer, H1 Q179K / L1 Q124E_T180E (H1L1 of LCCA sets 9796 and 9789) | 
0.46 | 60 |  |  | D3H44 Fab heterodimer, H1 S186K / L1 Q124E_T180E (H1L1 of LCCA set 9862) | 
0.36 | 70 |  |  | D3H44 Fab heterodimer, H1 S186R / L1 Q124E_T180E (H1L1 of LCCA set 9900) | 
 |  |  |  | D3H44 Fab heterodimer, H1L1 of LCCA set 9803 (H: Q179R; L: Q124E_S131T_T178F_T180E) | Change in KD with respect to wild type (-(log(KD design) - log(KD wt))) [3]: 0.14; Kd [4]: 110 pM
 |  |  |  | D3H44 Fab heterodimer, H1L1 of LCCA set 9843 (H: S186K; L: Q124E_S131T_T178F_T180E) | Change in KD with respect to wild type (-(log(KD design) - log(KD wt))) [3]: -0.03; Kd [4]: 170 pM
 |  |  |  | D3H44 Fab heterodimer, H1L1 of LCCA set 9863 (H: S186K; L: Q124E_T180E) | Change in KD with respect to wild type (-(log(KD design) - log(KD wt))) [3]: 0.46; Kd [4]: 60 pM
 |  |  |  | D3H44 Fab heterodimer, H1L1 of LCCA set 9867 (H: S186R; L: Q124E_Q160E_T178E) | Change in KD with respect to wild type (-(log(KD design) - log(KD wt))) [3]: 0.06; Kd [4]: 140 pM
 |  |  |  | D3H44 Fab heterodimer, H1L1 of LCCA set 9885 (H: S186R; L: Q124E_S176L_T180E) | Change in KD with respect to wild type (-(log(KD design) - log(KD wt))) [3]: -0.06; Kd [4]: 180 pM
 |  |  |  | D3H44 Fab heterodimer, H1L1 of LCCA set 9887 (H: S186R; L: Q124E_T178E) | Change in KD with respect to wild type (-(log(KD design) - log(KD wt))) [3]: 0.06; Kd [4]: 140 pM
 |  |  |  | D3H44 Fab heterodimer, H1L1 of LCCA set 9901 (H: S186R; L: Q124E_T180E) | Change in KD with respect to wild type (-(log(KD design) - log(KD wt))) [3]: 0.36; Kd [4]: 70 pM
 |  |  |  | D3H44 Fab heterodimer, H1L1 of LCCA set 9983 (H: Q179K; L: S131E) | Change in KD with respect to wild type (-(log(KD design) - log(KD wt))) [3]: 0.05; Kd [4]: 140 pM

Change in KD with respect to wild type (-(log(KD design) - log(KD wt))) [1] | Kd [2] [pM] | Kd [5] [pM] | Change in KD with respect to wild type (-(log(KD design) - log(KD wt))) [6] | Substance | other results
 |  |  |  | D3H44 Fab heterodimer, H1L1 of LCCA set 9987 (H: L143E_K145T; L: Q124R_T178R) | Change in KD with respect to wild type (-(log(KD design) - log(KD wt))) [3]: 0.15; Kd [4]: 110 pM
 |  |  |  | D3H44 Fab heterodimer, H1L1 of LCCA sets 9708, 9712 and 9716 (H: L143E_K145T_S188L; L: Q124R_Q160K_T178R) | Change in KD with respect to wild type (-(log(KD design) - log(KD wt))) [3]: -0.19; Kd [4]: 240 pM
 |  |  |  | D3H44 Fab heterodimer, H1L1 of LCCA sets 9763 and 9773 (H: Q179K; L: Q124E_Q160E_T180E) | Change in KD with respect to wild type (-(log(KD design) - log(KD wt))) [3]: -0.31; Kd [4]: 320 pM
 |  |  |  | D3H44 Fab heterodimer, H1L1 of LCCA sets 9831, 9833 and 9841 (H: S186K; L: Q124E_Q160E_T180E) | Change in KD with respect to wild type (-(log(KD design) - log(KD wt))) [3]: 0.09; Kd [4]: 130 pM
 |  |  |  | D3H44 Fab heterodimer, H1L1 of LCCA sets 9869, 9871, 9874, 9876 and 9879 (H: S186R; L: Q124E_Q160E_T180E) | Change in KD with respect to wild type (-(log(KD design) - log(KD wt))) [3]: 0.51; Kd [4]: 50 pM
 |  |  |  | D3H44 Fab heterodimer, H1L1 of LCCA sets 9881 and 9882 (H: S186R; L: Q124E_S131T_T178F_T180E) | Change in KD with respect to wild type (-(log(KD design) - log(KD wt))) [3]: 0.15; Kd [4]: 110 pM
 |  | 280 | -0.25 | D3H44 Fab heterodimer, H L143E_K145T / L Q124R (H1L1 of LCCA set 9587) | 
 |  | 120 | 0.12 | D3H44 Fab heterodimer, H L143E_K145T_Q179D / L Q124R_T178K (H1L1 of LCCA set 9626) | 
 |  | 150 | 0.02 | D3H44 Fab heterodimer, H L143E_K145T_Q179E / L Q124R_Q160K_T178R (H1L1 of LCCA set 9654) | 
 |  | 340 | -0.34 | D3H44 Fab heterodimer, H L143E_K145T_Q179E_S188L / L Q124R_T178R (H1L1 of LCCA sets 9696 and 9692) | 
 |  | 200 | -0.09 | D3H44 Fab heterodimer, H L143R / L Q124E_V133E (H1L1 of LCCA sets 9735 and 9737) | 
 |  | 320 | -0.31 | D3H44 Fab heterodimer, H Q179K / L Q124E_Q160E_T180E (H1L1 of LCCA sets 9761, 9769 and 9767) | 
 |  | 80 | 0.28 | D3H44 Fab heterodimer, H Q179K / L Q124E_S176L_T180E (H1L1 of LCCA set 9782) | 
 |  | 110 | 0.16 | D3H44 Fab heterodimer, H Q179K / L Q124E_T180E (H1L1 of LCCA sets 9797, 9794, 9789 and 9787) | 
 |  | 170 | -0.02 | D3H44 Fab heterodimer, H Q179R / L Q124E_S176L_T180E (H1L1 of LCCA set 9808) | 
 |  | 60 | 0.41 | D3H44 Fab heterodimer, H S186K / L Q124E_Q160E_T178E (H1L1 of LCCA set 9829) | 
 |  | 130 | 0.09 | D3H44 Fab heterodimer, H S186K / L Q124E_Q160E_T180E (H1L1 of LCCA sets 9836 and 9841) | 
 |  | 130 | 0.09 | D3H44 Fab heterodimer, H S186K / L Q124E_S131T_T178Y_T180E (H1L1 of LCCA set 9846) | 
 |  | 150 | 0.03 | D3H44 Fab heterodimer, H S186K / L Q124E_S176L_T180E (H1L1 of LCCA set 9848) | 
 |  | 60 | 0.46 | D3H44 Fab heterodimer, H S186K / L Q124E_T180E (H1L1 of LCCA sets 9855, 9860 and 9863) | 
 |  | 50 | 0.51 | D3H44 Fab heterodimer, H S186R / L Q124E_Q160E_T180E (H1L1 of LCCA sets 9876 and 9874) | 
 |  | 180 | -0.06 | D3H44 Fab heterodimer, H S186R / L Q124E_S176L_T180E (H1L1 of LCCA set 9886) | 
 |  | 70 | 0.36 | D3H44 Fab heterodimer, H S186R / L Q124E_T180E (H1L1 of LCCA sets 9891, 9901, 9898 and 9893) | 
